Legend:
[1] = target: CD20 on Jeko-1, Raji and Daudi cells (human) (UniProt P11836); experiment: FACS on Raji cells, PE anti-human secondary antibody
[2] = target: CD20 on Jeko-1, Raji and Daudi cells (human) (UniProt P11836); experiment: FACS on Daudi cells, PE anti-human secondary antibody
[3] = target: FcγIIIA Receptor on the effector cells (CD16 / FcγRIII) (human) (UniProt P08637); experiment: cell-based or functional assay
[4] = target: C1q Receptor in the complement system (rabbit serum as the source of complement) (rabbit); experiment: cell-based or functional assay

Sequence of FcγIIIA Receptor on the effector cells (CD16 / FcγRIII) (human) (P08637 17-254): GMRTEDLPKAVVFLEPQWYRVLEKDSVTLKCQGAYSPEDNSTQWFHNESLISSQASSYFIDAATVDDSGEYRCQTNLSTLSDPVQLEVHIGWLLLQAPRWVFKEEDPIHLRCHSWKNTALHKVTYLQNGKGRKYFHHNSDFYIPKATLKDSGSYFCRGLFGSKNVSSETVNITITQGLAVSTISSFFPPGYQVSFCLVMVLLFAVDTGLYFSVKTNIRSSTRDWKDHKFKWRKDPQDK
Sequence of CD20 on Jeko-1, Raji and Daudi cells (human) (P11836 whole entry): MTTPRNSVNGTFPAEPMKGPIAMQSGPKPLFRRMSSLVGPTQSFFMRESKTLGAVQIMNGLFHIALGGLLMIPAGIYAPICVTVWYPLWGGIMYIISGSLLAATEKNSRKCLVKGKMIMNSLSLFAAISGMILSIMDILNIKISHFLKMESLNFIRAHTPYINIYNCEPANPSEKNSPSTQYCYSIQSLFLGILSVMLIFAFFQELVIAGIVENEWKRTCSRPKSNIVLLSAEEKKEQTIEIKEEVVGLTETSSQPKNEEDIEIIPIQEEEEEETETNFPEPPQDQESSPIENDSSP

**Q.** Which results are given for ARZERRA (ofatumumab) (antibody)?
**A.** EC50 [1]: 0.00873 ng/mL; EC50 [2]: 0.000793 ng/mL; EC50 of ADCC assay Using Primary NK Cells [3]: 500 µg/mL; CDC EC50 (Jeko-1 cells, rabbit complement) [4]: 0.353 µg/mL

**Q.** Which EC50 of ADCC assay Using Primary NK Cells [3] does the source give for GAZYVA (obinutuzumab) (antibody) here?
**A.** The EC50 of ADCC assay Using Primary NK Cells was 19 µg/mL.

**Q.** For OCREVUS (ocrelizumab) (antibody), which CDC EC50 (Jeko-1 cells, rabbit complement) [4] is on record?
**A.** The CDC EC50 (Jeko-1 cells, rabbit complement) was 1.21 µg/mL.

**Q.** What does the source list for RITUXAN (rituximab) (antibody)?
**A.** EC50 of ADCC assay Using Primary NK Cells [3]: 1390 µg/mL; CDC EC50 (Jeko-1 cells, rabbit complement) [4]: 0.245 µg/mL

Reference: patent US11814439
